These results are taken from publication PMC12772503.

The labels stand for the following.
B1: myc-Syd-N2 (Syd^1-529) R492 [Drosophila] / HA-Rab2^Q65L [Drosophila] (parent)
chain 1: MMDNDDALLNNGGPQSGAETVYGTEDNNMVMSEKNEQVVSIVQQLAGSIYQEFERMINRYDEDVVKNLMPLLVNVLECLDASYRINQEQDVEVELLREDNEQLVTQYEREKSARKQSEQKLLEAEDLAEQENKELATRLESVESIVRMLELKHKNSLEHASRLEEREADLKKEYNKLHERYTELFKNHVDYMERTKMLMGSTHSQMSTASERMDVSRARLNPVARSSGPVSYGFASLENSVMLDTETICSVGSQSDDSGPPSLQNELDNLSGTLERGAATDALQQQHHATSPQSPDSSPVVPNVPTNVGRSTTKKEQRSDNNLYQELSFQDNEESEENEIVTGSWVHPGEYASSANDNYFGMGKEVENLIMENNELLATKNALNIVKDDLIVKVDELTGEVEIVREELNAMQQSRTKLRQRISELEDELKKAKEQVKQQNTEQEENDVPLAQRKRFTRVEMAMVLMERNQYKERLMELQEAVRLTEILRASRTVDNLDRKSKQSIWKYFSNLFTPSNRPTERVADGLGG
chain 2: MSYAYLFKYIIIGDTGVGKSCLLLQFTDKRFQPVHDLTIGVEFGARMITIDGKQIKLQIWDTAGLEAFRSITRSYYRGAAGALLVYDITRRETFNHLTTWLEDARQHSNSNMVIMLIGNKSDLDSRREVKKEEGEAFAREHGLVFMETSARTAANVEEAFINTAKEIYEKIQEGVFDINNEANGIKIGQQHSPTNPSLPGAGGAAGAANSGCC

The first test covers variants of B1. In words: Co-IP (anti-HA IP, anti-myc immunoblot quantification). Particulars: with HA-Rab2^Q65L [Drosophila]; HEK cell lysates; single experiment 1 of 3 (solid line); P < 0.005 vs WT printed; parent: 17; read off a plot. (Immunoblotting shows a protein as a band on a membrane.)
For the variant chain 1 V482A R483A L484A T485A E486A I487A R489A S491A R492A, the response came out at 11 a.u.

The test is the same for the next values; noted with them: with HA-Rab2^Q65L [Drosophila]; HEK cell lysates; single experiment 2 of 3 (upper dashed line); P < 0.005 vs WT printed; parent: 17; read off a plot.
For chain 1 V482A R483A L484A T485A E486A I487A R489A S491A R492A, the response is 6.8 a.u.

The same test, now with this note: with HA-Rab2^Q65L [Drosophila]; HEK cell lysates; single experiment 3 of 3 (lower dashed line); P < 0.005 vs WT printed; parent: 17; read off a plot.
For the variant chain 1 V482A R483A L484A T485A E486A I487A R489A S491A R492A, the response came to 4.7 a.u.
